Data on 2 substances can be found in patent publication US20180118818A1.

Test [1] concerns the target green fluorescent protein (GFP) (Aequorea-derived) [GFP: P42212]. Put plainly: cell-based or functional assay.
A further test has as its target DsRed (UniProt Q9U6Y8). Put plainly: cell-based or functional assay.
UniProt Q9U6Y8, sequence (Q9U6Y8 whole entry): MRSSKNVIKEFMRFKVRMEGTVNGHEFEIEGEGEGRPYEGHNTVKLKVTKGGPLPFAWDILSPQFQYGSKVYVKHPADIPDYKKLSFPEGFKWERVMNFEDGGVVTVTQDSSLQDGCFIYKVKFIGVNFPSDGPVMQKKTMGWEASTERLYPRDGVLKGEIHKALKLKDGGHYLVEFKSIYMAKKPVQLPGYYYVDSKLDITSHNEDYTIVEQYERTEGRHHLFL

Take “dGBP1x2-Flpo (Flp dependent on GFP, Flp-DOG) (VHH)”: in test [1], the fold induction of the Flp-dependent luciferase reporter by GFP, 293T cells worked out at 636 fold.
For the substance “dGBP1-TagBFP (destabilized GBP1 fused to TagBFP) (VHH)”, in the test with DsRed, the % TagBFP+ given GFP+ or DsRed+ cells in ONL (+CAG-DsRed) stood at 0%. In test [1], this substance displayed a % Anti-TagBFP+ given GFP+ cells (CAG promoter for GFP, INL) of 97%; a % Anti-TagBFP+ given GFP+ cells (CAG promoter for GFP, ONL) of 100%; a % Anti-TagBFP+ given GFP+ cells (Rho promoter for GFP, ONL) of 100%; a % GFP+ cells given Anti-TagBFP+ cells (CAG promoter for GFP, INL) of 99%. In test [1], this substance showed a % GFP+ cells given Anti-TagBFP+ cells (CAG promoter for GFP, ONL) of 100%; a % GFP+ cells given Anti-TagBFP+ cells (Rho promoter for GFP, ONL) of 100%; a % TagBFP+ given GFP+ or DsRed+ cells in ONL (+CAG-GFP) of 91%.
